{"source": "paper PMC11145777", "molecular_target": "native H3 (human (endogenous in HeLa)) (UniProt P68431)", "experiment": "co-IP; native (unfixed) ChIP on mono-nucleosomes: native CpA from untransfected HeLa, GFP-CpA and HA-CpA from transfected HeLa, Western for H1.5 (three antibodies) and H2A; H3 ChIP done sequentially after the native CpA ChIP"}
{"substance": "linker histone H1.5 (from UniProt P16401 1-226) (natural protein)", "values": [{"measurement": "fold affinity against native CpA", "value": 13, "unit": "fold"}]}
